From PMC13365404 (npj Viruses, 2026)

What was measured:
Settings in all cases: one partner purified
[1] = biological target: T1, BDBV GP, full-length transmembrane glycoprotein expressed on MDCK SIAT-1 cells (Bundibugyo virus, Butalya-811250 …, UniProt B8XCN0); assay: immunoprecipitation
[2] = biological target: T2, TAFV GP, full-length transmembrane glycoprotein expressed on MDCK SIAT-1 cells (Taï Forest virus (YP_003815426.1), UniProt Q66810); assay: immunoprecipitation
[3] = biological target: RESTV GP expressed on MDCK SIAT-1 cells (Reston virus, isolate ; …, UniProt Q66799); assay: immunostaining of cells or tissue
[4] = biological target: T3, EBOV GP (Mayinga), full-length transmembrane glycoprotein expressed on MDCK SIAT-1 cells (Ebola virus, Mayinga (NP_066246.1), UniProt Q05320); assay: immunostaining of cells or tissue
[5] = biological target: T4, SUDV GP, full-length transmembrane glycoprotein expressed on MDCK SIAT-1 cells (Sudan virus, Gulu 2000 (YP_138523.1), UniProt Q7T9D9); assay: immunostaining of cells or tissue
T4 construct: source: MDCK SIAT-1 cell line expressing GP (generated previously), on the cell surface

[6] = biological target: T3, EBOV GP (Mayinga), full-length …; assay: immunoprecipitation
[7] = biological target: T1, BDBV GP, full-length transmembrane …; assay: immunostaining of cells or tissue
[8] = biological target: T2, TAFV GP, full-length transmembrane …; assay: immunostaining of cells or tissue

Measured: binding result

B1: mAb 11886 (recombinant rabbit IgG) (antibody, V domains shown)
VH: QSVEESGGRLVTPGTPLTLTCIVSGFSLSNYYMSWVRQVPGKGLEWIGVIGWSGTSSYASWAKGRFTISKTASTTVDLKITSPTTEDTATYFCARVLYIGGGFNYYDAFDPWGPGTLVTVS
VL: DVVMTQTPASVSEPVGGTVTIKCQASQSIGSNLAWYQQKPGQPPKLLIYAASTLASGVPSRFKGSGSGTEFTLTISDLECADAATYYCQCTYYDSSYVYNNFGGGTEVVVK
notes: source: HEK293F, transfected, purified (Protein A)
binds: [1] | [2] | [3] | [4] | [5]

B2: mAb 11883 (recombinant rabbit IgG) (antibody, V domains shown)
VH: QEQLVESGGGLVQPEGSLTLTCTASGFSFSSNCWRCWVRQAPGKGLEWIACVCAGRSGGTTYYASWAKGRFTISKTSSPTVTLQMTSLTAADTATYFCARAGYDDYGDASFFNLWGPGTLVTVS
VL: AVVLTQTASPVSTPVGGTVTIKCQASQNIYSNLAWYQQKPGQPPKLLIYSASTLASGVPSRFKGSGSGTEYTLTISDLECADAATYYCQRYYYLSGSADNTFGGGTEVVVK
notes: as for B1
binds: [6] | [3] | [5] | [7] | [8]
